Test results from patent US6936431.

Target: rat brain farnesyl:protein transferase (rat) (UniProt Q04631)
Experiment: cell-based or functional assay

Work on “CAIL (COOH-terminal tetrapeptide of γ-Subunit of G protein)” yielded a Concentration For 50% Inhibition of 100 µM.
In the case of “CVIM with glutamic acid at the A2 position (CVEM) (peptide)”, the fold decline in affinity is reported as greater than 50 fold.
“CVIM with glutamic acid at the X position (CVIE) (peptide)” was tested, and the 50% inhibition was greater than 40 µM.
In the case of “CVIM with glycine at the A2 position (CVGM) (peptide)”, the 50% inhibition is reported as 8 µM.
Substance “CVIM with glycine at the X position (CVIG) (peptide)” has a 50% inhibition greater than 40 µM.
“CVIM with lysine at the A2 position (CVKM) (peptide)” gave a fold decline in affinity greater than 50 fold and a fold decrease in affinity against CVIM, estimated by the concentration required for 50% inhibition greater than 30 fold.
For “CVIM with lysine at the X position (CVIK) (peptide)”, the 50% inhibition was greater than 40 µM and the fold decrease in affinity against CVIM, estimated by the concentration required for 50% inhibition was greater than 30 fold.
